Test results published in the supplement of paper PMC10065799, “High-throughput profiling of sequence recognition by tyrosine kinases and SH2 domains using bacterial peptide display” (eLife, 2023).

Tested on: AncSZ
Test: phosphorylation enrichment, bacterial display (enrichment ratio); higher = better substrate or ligand; peptides without Tyr show the background
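Also: 11-residue human phosphosite peptides and single-mutation variants displayed on the E. coli surface, counted by deep sequencing, each peptide's frequency after selection divided by its frequency in the unselected input library; frequency after pTyr selection over input frequency; kinase dosed for 20-30% of maximal phosphorylation in three min.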

Sequence	phosphorylation enrichment
EALDFCGEVRT [PTEN_Y155_Y155C]	1.31
AIIEEYLHLND [EIF4G1_Y1253]	1.02
HLMLQYDAVVN [SLC25A32_Y152_R147H]	1.75
RKGGSYSQAAS [HLA-A_Y344_T345S]	0.599
LRGEDYGFSVD [PRKCI_Y430]	1.1
RHLREYQDLLN [DES_Y388]	0.93
RTLSEYARRHV [RERE_Y1259_P1262R]	0.613
LKKKQYTSIHH [APP_Y728]	0.631
SPFAVYLFFTF [RPGRIP1_Y826_R827L_YF]	0.99
DCAAIYGNEPE [AKR1A1_Y50]	1.27
MAYDRYAAICS [OR8H2_Y123_H120Y]	0.94
RGVTRYIFNRE [HLA-DQB1_Y62_Y58G_YF]	2.22
YQLENCCNGGG [INS_Y108_Y108C]	0.829
NYNPNYCFAGK [ALK_Y1096_D1091N]	1.26
IWDLKYTIENP [SND1_Y178_R174W]	1.01
AVLQPYIFVAT [CFTR_Y1014]	1.56
SLALFYRNVFH [RBL1_Y792_K794N_YF]	0.962

Sequence	phosphorylation enrichment
RFGKVYKAHLF [ROR2_Y488_G490A]	0.622
VHNLDYFKKTT [FGFR3_Y647_YF]	0.806
EAKENYGKTLK [CHL1_Y291_T287A]	0.655
EDASEYFENFI [PARP4_Y214_F215Y_YF]	2.37
GFFDLYGGEKF [PTPN11_Y66_D61G_YF]	0.906
ESFRLYPPVPQ [CYP4B1_Y377]	0.62
NTQRPHYKGGG [TYROBP_Y111_Y111H]	0.428
LSSETYVKSFT [F5_Y2149_M2148T_YF]	0.969
MKSIKYMDKEI [CCDC60_Y41]	0.578
RSSGGYEPRGC [FUS_Y239_R244C]	0.439
ESLRRYLENGK [HLA-B_Y195_W191S]	0.629
FGGLRYGFGGL [KRTAP20-2_Y13_V17G_YF]	0.739
DTERIYDDDFF [UBA1_Y560]	1.36
IKETHYMVDKC	0.8
ENPLDYGSAWA [AR_Y395]	0.992
ENELTYFCCKK [CD59_Y86_YF]	1.32

Tested on: c-Abl (mouse)
Test: as above

Sequence	phosphorylation enrichment
EALDFCGEVRT [PTEN_Y155_Y155C]	0.984
AIIEEYLHLND [EIF4G1_Y1253]	0.585
HLMLQYDAVVN [SLC25A32_Y152_R147H]	1.08
RKGGSYSQAAS [HLA-A_Y344_T345S]	0.738
LRGEDYGFSVD [PRKCI_Y430]	1.12
RHLREYQDLLN [DES_Y388]	0.888
RTLSEYARRHV [RERE_Y1259_P1262R]	2.14
LKKKQYTSIHH [APP_Y728]	1.39
SPFAVYLFFTF [RPGRIP1_Y826_R827L_YF]	0.754
DCAAIYGNEPE [AKR1A1_Y50]	0.799
MAYDRYAAICS [OR8H2_Y123_H120Y]	0.839
RGVTRYIFNRE [HLA-DQB1_Y62_Y58G_YF]	1.34
YQLENCCNGGG [INS_Y108_Y108C]	0.556
NYNPNYCFAGK [ALK_Y1096_D1091N]	0.803
IWDLKYTIENP [SND1_Y178_R174W]	1.07
AVLQPYIFVAT [CFTR_Y1014]	0.978
SLALFYRNVFH [RBL1_Y792_K794N_YF]	0.688

Sequence	phosphorylation enrichment
RFGKVYKAHLF [ROR2_Y488_G490A]	0.594
VHNLDYFKKTT [FGFR3_Y647_YF]	0.573
EAKENYGKTLK [CHL1_Y291_T287A]	0.495
EDASEYFENFI [PARP4_Y214_F215Y_YF]	1.07
GFFDLYGGEKF [PTPN11_Y66_D61G_YF]	0.767
ESFRLYPPVPQ [CYP4B1_Y377]	0.553
NTQRPHYKGGG [TYROBP_Y111_Y111H]	0.605
LSSETYVKSFT [F5_Y2149_M2148T_YF]	0.595
MKSIKYMDKEI [CCDC60_Y41]	0.457
RSSGGYEPRGC [FUS_Y239_R244C]	0.539
ESLRRYLENGK [HLA-B_Y195_W191S]	0.548
FGGLRYGFGGL [KRTAP20-2_Y13_V17G_YF]	0.553
DTERIYDDDFF [UBA1_Y560]	1.01
IKETHYMVDKC	0.652
ENPLDYGSAWA [AR_Y395]	0.709
ENELTYFCCKK [CD59_Y86_YF]	0.737

Molecular target: MERTK (UniProt Q12866)
Sequence (Q12866 whole entry, looked up): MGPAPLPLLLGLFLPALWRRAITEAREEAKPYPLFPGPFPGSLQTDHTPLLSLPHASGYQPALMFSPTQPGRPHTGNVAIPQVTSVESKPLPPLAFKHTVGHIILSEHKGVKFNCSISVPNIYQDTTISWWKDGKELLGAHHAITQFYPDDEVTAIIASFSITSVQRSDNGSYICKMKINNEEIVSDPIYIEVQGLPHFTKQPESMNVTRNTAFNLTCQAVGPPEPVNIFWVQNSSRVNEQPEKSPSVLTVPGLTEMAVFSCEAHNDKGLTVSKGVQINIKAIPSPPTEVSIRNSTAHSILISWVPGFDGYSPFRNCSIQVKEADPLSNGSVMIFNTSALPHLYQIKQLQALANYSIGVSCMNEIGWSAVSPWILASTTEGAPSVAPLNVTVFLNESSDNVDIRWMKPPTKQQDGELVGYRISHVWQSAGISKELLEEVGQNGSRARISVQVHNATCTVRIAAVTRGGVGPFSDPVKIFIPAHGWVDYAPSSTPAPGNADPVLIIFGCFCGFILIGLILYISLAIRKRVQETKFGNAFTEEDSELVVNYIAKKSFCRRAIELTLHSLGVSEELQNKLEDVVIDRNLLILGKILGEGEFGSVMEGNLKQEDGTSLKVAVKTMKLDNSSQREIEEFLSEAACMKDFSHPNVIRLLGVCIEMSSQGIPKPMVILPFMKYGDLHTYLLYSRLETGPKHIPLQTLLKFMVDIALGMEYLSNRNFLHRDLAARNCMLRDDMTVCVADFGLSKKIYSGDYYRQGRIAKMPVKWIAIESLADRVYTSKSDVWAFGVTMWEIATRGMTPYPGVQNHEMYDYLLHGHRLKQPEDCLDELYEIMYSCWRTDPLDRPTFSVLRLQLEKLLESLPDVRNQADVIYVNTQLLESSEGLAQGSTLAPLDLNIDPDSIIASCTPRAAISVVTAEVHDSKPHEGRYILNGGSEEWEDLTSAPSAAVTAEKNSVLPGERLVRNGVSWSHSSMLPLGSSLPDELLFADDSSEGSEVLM
Test: as above

Sequence	phosphorylation enrichment
EALDFCGEVRT [PTEN_Y155_Y155C]	0.482
AIIEEYLHLND [EIF4G1_Y1253]	0.376
HLMLQYDAVVN [SLC25A32_Y152_R147H]	1.27
RKGGSYSQAAS [HLA-A_Y344_T345S]	0.656
LRGEDYGFSVD [PRKCI_Y430]	0.623
RHLREYQDLLN [DES_Y388]	0.491
RTLSEYARRHV [RERE_Y1259_P1262R]	0.572
LKKKQYTSIHH [APP_Y728]	0.508
SPFAVYLFFTF [RPGRIP1_Y826_R827L_YF]	0.34
DCAAIYGNEPE [AKR1A1_Y50]	0.806
MAYDRYAAICS [OR8H2_Y123_H120Y]	0.835
RGVTRYIFNRE [HLA-DQB1_Y62_Y58G_YF]	1.59
YQLENCCNGGG [INS_Y108_Y108C]	0.601
NYNPNYCFAGK [ALK_Y1096_D1091N]	1.1
IWDLKYTIENP [SND1_Y178_R174W]	0.426
AVLQPYIFVAT [CFTR_Y1014]	0.55
SLALFYRNVFH [RBL1_Y792_K794N_YF]	0.422

Sequence	phosphorylation enrichment
RFGKVYKAHLF [ROR2_Y488_G490A]	0.509
VHNLDYFKKTT [FGFR3_Y647_YF]	0.505
EAKENYGKTLK [CHL1_Y291_T287A]	0.327
EDASEYFENFI [PARP4_Y214_F215Y_YF]	0.58
GFFDLYGGEKF [PTPN11_Y66_D61G_YF]	0.504
ESFRLYPPVPQ [CYP4B1_Y377]	0.404
NTQRPHYKGGG [TYROBP_Y111_Y111H]	0.391
LSSETYVKSFT [F5_Y2149_M2148T_YF]	0.379
MKSIKYMDKEI [CCDC60_Y41]	0.44
RSSGGYEPRGC [FUS_Y239_R244C]	0.261
ESLRRYLENGK [HLA-B_Y195_W191S]	0.392
FGGLRYGFGGL [KRTAP20-2_Y13_V17G_YF]	0.37
DTERIYDDDFF [UBA1_Y560]	0.702
IKETHYMVDKC	0.437
ENPLDYGSAWA [AR_Y395]	0.395
ENELTYFCCKK [CD59_Y86_YF]	0.703

Tested on: Fer (mouse)
Test: as above

Sequence	phosphorylation enrichment
EALDFCGEVRT [PTEN_Y155_Y155C]	0.674
AIIEEYLHLND [EIF4G1_Y1253]	0.487
HLMLQYDAVVN [SLC25A32_Y152_R147H]	1.81
RKGGSYSQAAS [HLA-A_Y344_T345S]	0.294
LRGEDYGFSVD [PRKCI_Y430]	0.636
RHLREYQDLLN [DES_Y388]	0.533
RTLSEYARRHV [RERE_Y1259_P1262R]	0.404
LKKKQYTSIHH [APP_Y728]	0.688
SPFAVYLFFTF [RPGRIP1_Y826_R827L_YF]	0.335
DCAAIYGNEPE [AKR1A1_Y50]	0.672
MAYDRYAAICS [OR8H2_Y123_H120Y]	0.597
RGVTRYIFNRE [HLA-DQB1_Y62_Y58G_YF]	0.886
YQLENCCNGGG [INS_Y108_Y108C]	0.535
NYNPNYCFAGK [ALK_Y1096_D1091N]	0.597
IWDLKYTIENP [SND1_Y178_R174W]	0.496
AVLQPYIFVAT [CFTR_Y1014]	0.674
SLALFYRNVFH [RBL1_Y792_K794N_YF]	0.497

Sequence	phosphorylation enrichment
RFGKVYKAHLF [ROR2_Y488_G490A]	0.846
VHNLDYFKKTT [FGFR3_Y647_YF]	0.428
EAKENYGKTLK [CHL1_Y291_T287A]	0.305
EDASEYFENFI [PARP4_Y214_F215Y_YF]	0.598
GFFDLYGGEKF [PTPN11_Y66_D61G_YF]	0.72
ESFRLYPPVPQ [CYP4B1_Y377]	0.378
NTQRPHYKGGG [TYROBP_Y111_Y111H]	0.422
LSSETYVKSFT [F5_Y2149_M2148T_YF]	0.511
MKSIKYMDKEI [CCDC60_Y41]	0.514
RSSGGYEPRGC [FUS_Y239_R244C]	0.277
ESLRRYLENGK [HLA-B_Y195_W191S]	0.454
FGGLRYGFGGL [KRTAP20-2_Y13_V17G_YF]	0.431
DTERIYDDDFF [UBA1_Y560]	0.995
IKETHYMVDKC	0.507
ENPLDYGSAWA [AR_Y395]	0.524
ENELTYFCCKK [CD59_Y86_YF]	0.478
